Experimental data reported in the supplement of paper PMC10126150.
± gives the standard deviation of the averaged measurements.

System: ATP
Experiment: switch fluorescence ratio, 500 uM ATP over buffer (Cy3 cluster intensity, sum of 5 cycles each) (fold (ratio)); higher = stronger signal-on switching upon ATP binding; sequences stand for … in TCGTCGGCAGCGTCAGATGTGTATAAGAGACAGTTTTTTTTTTTTTTTTTTTTTTTTT…TC
Conditions: aptamer strand: ATP DNA aptamer (quencher-CACCTGGGGGAGTATTGCGGAGGAAGG + anchor), 100 nM annealed; ATP concentration: 500 uM
Summary of the method: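 Cy3-labelled switching-strand clusters on a modified Illumina MiSeq flow-cell were annealed to 100 nM quencher-labelled ATP aptamer, imaged in selection buffer, then imaged after 15 min with 500 uM ATP at 22 °C. Five buffer/ATP cycles ran, with NaOH stripping and re-annealing between them. The fluorescence ratio is summed target-cycle over summed buffer-cycle Cy3 intensity per cluster, averaged per switch-domain sequence. Clusters outside 100-1000 RFU were excluded.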
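Note: ATP exposure 15 min at 22 °C before imaging.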

| Sequence | switch fluorescence ratio |
| --- | --- |
| TGAGGGGTTG | 1 ± 0.036 |
| TGAGGGTTGG | 1.01 ± 0.027 |
| TGAGGGTTGT | 1.01 ± 0.046 |
| TGAGGTAACG | 0.992 ± 0.029 |
| TGAGGTAGGA | 0.9781 ± 0.0014 |
| TGAGGTCACG | 0.982 ± 0.036 |
| TGAGGTCGCG | 0.9759 ± 0.0035 |
| TGAGGTGTAT | 0.98719 ± 0.00023 |
| TGAGGTTGTC | 0.981 ± 0.09 |
| TGAGGTTTGA | 0.986 ± 0.02 |
| TGAGTACAGC | 1.03 ± 0.092 |
| TGAGTACGGG | 0.9844 ± 0.0025 |
| TGAGTATAGT | 1.01 ± 0.035 |
| TGAGTCCTCG | 0.995 ± 0.064 |
| TGAGTCTGTT | 1.01 ± 0.028 |
| TGAGTGACG | 1.0136 ± 0.00054 |
| TGAGTGATTT | 1.02 ± 0.031 |
| TGAGTGGGGC | 1.03 ± 0.025 |
| TGAGTTATTT | 1.01 ± 0.012 |
| TGAGTTCAAC | 1.04 ± 0.086 |
| TGAGTTCGGC | 1.03 ± 0.015 |
| TGAGTTGGGT | 0.986 ± 0.019 |
| TGAGTTTGTT | 1.021 ± 0.0092 |
| TGAGTTTTGG | 1.02 ± 0.015 |
| TGAGTTTTTG | 0.998 ± 0.022 |
| TGATAAAGAT | 1.02 ± 0.034 |

| Sequence | switch fluorescence ratio |
| --- | --- |
| TGATAAATAC | 1.33 ± 0.069 |
| TGATAATTTA | 1.06 ± 0.016 |
| TGATACCATG | 0.997 ± 0.018 |
| TGATAGCCAG | 0.9605 ± 0.0072 |
| TGATAGGGCG | 0.963 ± 0.08 |
| TGATATAAGC | 1.03 ± 0.015 |
| TGATATCAAG | 0.979 ± 0.013 |
| TGATATGGGA | 1.01 ± 0.03 |
| TGATATTGTG | 0.994 ± 0.024 |
| TGATATTTGT | 1.01 ± 0.027 |
| TGATCAGATC | 1 ± 0.026 |
| TGATCATATT | 1.024 ± 0.0079 |
| TGATCCCGGG | 0.93018 ± 0.00028 |
| TGATCGCTTT | 1.026 ± 0.01 |
| TGATCGGGCG | 1.04 ± 0.02 |
| TGATCTTGGA | 1.06 ± 0.055 |
| TGATCTTGTT | 0.9619 ± 0.0037 |
| TGATGAAAGG | 0.987 ± 0.031 |
| TGATGAAATT | 1.02 ± 0.036 |
| TGATGAGGAG | 0.996 ± 0.014 |
| TGATGAGGAT | 1.007 ± 0.0083 |
| TGATGAGGGT | 1.02 ± 0.02 |
| TGATGATATG | 0.9929 ± 0.0094 |
| TGATGCCGCT | 1.07 ± 0.083 |
| TGATGCGGGT | 0.98723 ± 6.3e-05 |
| TGATGCGTGT | 0.999 ± 0.027 |

| Sequence | switch fluorescence ratio |
| --- | --- |
| TGATGCTCGG | 0.996 ± 0.069 |
| TGATGGATGA | 1.01 ± 0.02 |
| TGATGGGACT | 1.01 ± 0.029 |
| TGATGGGAGT | 0.983 ± 0.014 |
| TGATGGGGGT | 1.04 ± 0.042 |
| TGATGGGTTT | 0.971 ± 0.043 |
| TGATGGTCGA | 1.02 ± 0.032 |
| TGATGTAACG | 1.012 ± 0.0082 |
| TGATGTACGT | 1 ± 0.011 |
| TGATGTGGGG | 0.97 ± 0.029 |
| TGATGTTGAC | 1 ± 0.013 |
| TGATGTTTGA | 0.9947 ± 0.0094 |
| TGATTAGAAG | 0.985 ± 0.034 |
| TGATTCAAAG | 1.01 ± 0.035 |
| TGATTCAAAT | 1.02 ± 0.0087 |
| TGATTGAGGG | 0.9572 ± 0.0056 |
| TGATTGGAGG | 0.994 ± 0.038 |
| TGATTGGGTC | 1.02 ± 0.036 |
| TGATTGGTGT | 1.02 ± 0.011 |
| TGATTGTGGG | 1.03 ± 0.033 |
| TGATTTATGA | 0.9924 ± 0.0067 |
| TGATTTGAAG | 0.9464 ± 0.007 |
| TGATTTTGAG | 1.01 ± 0.018 |
| TGATTTTGGG | 0.997 ± 0.035 |
| TGATTTTGTC | 0.9932 ± 0.0028 |
